Here are results for 3 molecules from patent US8148119B2, “Hydroxylase gene and use thereof” (Microbiopharm Japan Co., Ltd., priority 2006, dated 2012).

“Also recorded” adds a separate entry of the source. Like-named read-outs stand apart in the source and are kept apart here.

Data set [1] concerns the target T1, VDH (Pseudonocardia autotrophica, UniProt C4B644).
T1 construct: there was no mutation of the VDH gene and the VDH gene was inserted in the designated site; made in house; host or cells: Escherichia coli BL21(DE3), cell-free extract
T1 sequence (C4B644 2-403): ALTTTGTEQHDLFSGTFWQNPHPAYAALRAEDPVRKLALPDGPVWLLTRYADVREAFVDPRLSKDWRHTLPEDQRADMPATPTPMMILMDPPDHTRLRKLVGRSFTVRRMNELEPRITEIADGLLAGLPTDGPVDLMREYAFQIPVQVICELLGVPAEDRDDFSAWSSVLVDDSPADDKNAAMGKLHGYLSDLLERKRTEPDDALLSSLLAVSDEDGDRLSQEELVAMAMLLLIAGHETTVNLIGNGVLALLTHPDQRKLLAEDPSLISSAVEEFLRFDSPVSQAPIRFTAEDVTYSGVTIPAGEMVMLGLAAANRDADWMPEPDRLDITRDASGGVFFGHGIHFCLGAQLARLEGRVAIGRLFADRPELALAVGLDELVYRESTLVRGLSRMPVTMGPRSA
The data set is described as follows: Reduced-CO difference spectral analysis, VDH expression in Escherichia coli BL21(DE3) transformants. As to the method: First, the cell suspension obtained by the method previously described was subjected to cell disruption at 4° C. using 0.1 mm glass beads by a cell disruptor, Multi-beads shocker (manufactured by Yasui Kikai Corporation). In the cell disruption, ten cycles of 30-second shaking at 2500 rpm and a 30-second break were conducted. The cell-disrupted solution was centrifuged at 12000 rpm for 10 minutes to thereby obtain a cell-free extract. 700 μl of the cell-free extract was transferred into each of two test tubes with caps and carbon monoxide was purged into one of the tubes. Then, a small amount of sodium hydrosulfite was added to the cell-free extract in both of the tubes. Taking the absorption spectrum at from 400 nm to 500 nm of the sample without the purge of carbon monoxide as the baseline level, the absorption spectrum at from 400 to 500 nm of the sample purged with carbon monoxide was scanned using a spectrophotometer (U-3210 SpectrophotoMeter manufactured by HITACHI, Ltd.).
First, the cell suspension of transformed Escherichia coli BL21(DE3)/pVDH-thcCD obtained by the method previously described was subjected to cell disruption at 4° C. using 0.1 mm glass beads by a cell disruptor, Multi-beads shocker (manufactured by Yasui Kikai Corporation). In the cell disruption, ten cycles of 30-second shaking at 2500 rpm and a 30-second break were conducted. […]

Data set [2] in a line: VD3 conversion in reconstituted system (cell-free extract or purified VDH plus redox partner). In kind it is biochemical.
The conditions of data set [3]: cited from earlier work.
The conditions of data set [4]: cited from earlier work. This is another data set of the same source.

B1: VDH: hydroxylase of vitamin D or the like from Pseudonocardia autotrophica, cytochrome P450, amino acid sequence ID No. 2 (protein, listed as Pseudonocardia autotrophica)
chain: MALTTTGTEQHDLFSGTFWQNPHPAYAALRAEDPVRKLALPDGPVWLLTRYADVREAFVDPRLSKDWRHTLPEDQRADMPATPTPMMILMDPPDHTRLRKLVGRSFTVRRMNELEPRITEIADGLLAGLPTDGPVDLMREYAFQIPVQVICELLGVPAEDRDDFSAWSSVLVDDSPADDKNAAMGKLHGYLSDLLERKRTEPDDALLSSLLAVSDEDGDRLSQEELVAMAMLLLIAGHETTVNLIGNGVLALLTHPDQRKLLAEDPSLISSAVEEFLRFDSPVSQAPIRFTAEDVTYSGVTIPAGEMVMLGLAAANRDADWMPEPDRLDITRDASGGVFFGHGIHFCLGAQLARLEGRVAIGRLFADRPELALAVGLDELVYRESTLVRGLSRMPVTMGPRSA
Regarding B1, the “Estimated concentration of VDH per culture” value in data set [1] (Escherichia coli BL21(DE3)/pVDH-camAB) is 113 nM. The “VDH expression per culture fluid” value in data set [1] (Escherichia coli BL21(DE3)/pVDH-thcCD) is listed as 258 nM. In addition, in data set [2] (ferredoxin and ferredoxin reductase derived from spinach, 10 μM VD3, 30° C.), the “Hydroxides of VD3 detected by HPLC” value is “a reaction proceeds; also recorded: converting VD3 to HVD, DHVD and THVD”. The “Reaction in reconstituted system with putidaredoxin and putidaredoxin reductase” value in data set [2] (redox partner derived from Pseudomonas putida) is listed as “electron transfer reaction did not proceed”.

B2: Human CYP27A1: human cytochrome P450 known to have hydroxylation activity at 25-position of vitamin D3 (protein, UniProt Q02318 34-531, looked up)
Sterol 26-hydroxylase, …: ALPSDKATGAPGAGPGVRRRQRSLEEIPRLGQLRFFFQLFVQGYALQLHQLQVLYKAKYGPMWMSYLGPQMHVNLASAPLLEQVMRQEGKYPVRNDMELWKEHRDQHDLTYGPFTTEGHHWYQLRQALNQRLLKPAEAALYTDAFNEVIDDFMTRLDQLRAESASGNQVSDMAQLFYYFALEAICYILFEKRIGCLQRSIPEDTVTFVRSIGLMFQNSLYATFLPKWTRPVLPFWKRYLDGWNAIFSFGKKLIDEKLEDMEAQLQAAGPDGIQVSGYLHFLLASGQLSPREAMGSLPELLMAGVDTTSNTLTWALYHLSKDPEIQEALHEEVVGVVPAGQVPQHKDFAHMPLLKAVLKETLRLYPVVPTNSRIIEKEIEVDGFLFPKNTQFVFCHYVVSRDPTAFSEPESFQPHRWLRNSQPATPRIQHPFGSVPFGYGVRACLGRRIAELEMQLLLARLIQKYKVVLAPETGELKSVARIVLVPNKKVGLQFLQRQC
On to B2, for which the Km was 3.2 µM in data set [3] (literature values (Sawada et al. 2004), read-out: Km for VD3) and 3.5 µM in data set [4] (literature values (Sawada et al.; Uchida et al.), read-out: Km for 25-OH VD3). Also, the “Vmax for VD3” value in data set [3] (literature values) is 270 mmol/min/mol of P450. The “Vmax for 25-OH VD3” value in data set [4] (literature values) is on record as 21 mmol/min/mol of P450.

B3: P450SU-1: cytochrome P450 derived from actinomycete Streptomyces griseolus ATCC 11796, reported to hydroxylate vitamin D3 (protein, UniProt P18326 2-406, looked up)
Vitamin D3 dihydroxylase: TDTATTPQTTDAPAFPSNRSCPYQLPDGYAQLRDTPGPLHRVTLYDGRQAWVVTKHEAARKLLGDPRLSSNRTDDNFPATSPRFEAVRESPQAFIGLDPPEHGTRRRMTISEFTVKRIKGMRPEVEEVVHGFLDEMLAAGPTADLVSQFALPVPSMVICRLLGVPYADHEFFQDASKRLVQSTDAQSALTARNDLAGYLDGLITQFQTEPGAGLVGALVADQLANGEIDREELISTAMLLLIAGHETTASMTSLSVITLLDHPEQYAALRADRSLVPGAVEELLRYLAIADIAGGRVATADIEVEGHLIRAGEGVIVVNSIANRDGTVYEDPDALDIHRSARHHLAFGFGVHQCLGQNLARLELEVILNALMDRVPTLRLAVPVEQLVLRPGTTIQGVNELPVTW
Consider B3, for which, in data set [3] (reported by Sawada et al. 2004), the “Hydroxylation of vitamin D3 to 25-hydroxy vitamin D3 and of 25-hydroxy vitamin D3 to 1α,25-hydroxy vitamin D3” value was “weak activity”.
